Test results from publication PMC10214761.
pKd: −log10 of the molar value.

Molecular target: IgG1k from human myeloma plasma (IgG1 MC) (human)
Test: SPR

## human Fcγ receptor IIa (hFcγRIIa) (from UniProt P12318 34-217)
  pKd: 6.51

## human Fcγ receptor IIb/c (hFcγRIIb/c) (from UniProt P31994 43-217)
  pKd: 5.47
